Source: PMC9482650, “Quantitative fragmentomics allow affinity mapping of interactomes” (Nature Communications, 2022)

What was measured:
Test in all cases: holdup assay
Parameters in all cases: key: below the threshold = too weak to quantify, mostly under pKd 3.1 to 4
APBA1_1, Q02410 = molecular target: T1, APBA1_1, Q02410
T1 sequence (Q02410 651-752, limits assumed, looked up): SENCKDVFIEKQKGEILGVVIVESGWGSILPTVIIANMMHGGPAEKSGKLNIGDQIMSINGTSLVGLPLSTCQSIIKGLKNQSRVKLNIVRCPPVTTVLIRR

APBA1_2, Q02410 = molecular target: T2, APBA1_2, Q02410
T2 sequence (Q02410 742-832, limits assumed, looked up): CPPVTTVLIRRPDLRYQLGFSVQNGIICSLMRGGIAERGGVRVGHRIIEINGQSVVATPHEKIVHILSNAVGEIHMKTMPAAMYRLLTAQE

ARHGAP21, Q5T5U3 = molecular target: T3, ARHGAP21, Q5T5U3
T3 sequence (Q5T5U3 45-169, limits assumed, looked up): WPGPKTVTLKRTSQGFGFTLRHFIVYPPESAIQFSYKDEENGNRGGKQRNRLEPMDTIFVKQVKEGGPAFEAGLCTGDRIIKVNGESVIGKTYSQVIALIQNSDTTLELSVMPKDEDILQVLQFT

ARHGEF11, O15085 = molecular target: T4, ARHGEF11, O15085
T4 sequence (O15085 42-136, limits assumed, looked up): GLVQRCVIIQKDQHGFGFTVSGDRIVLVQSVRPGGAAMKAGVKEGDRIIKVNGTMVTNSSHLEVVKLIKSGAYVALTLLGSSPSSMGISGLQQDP

DFNB31_3, Q9P202 = molecular target: T5, DFNB31_3, Q9P202
T5 sequence (Q9P202 811-907, limits assumed, looked up): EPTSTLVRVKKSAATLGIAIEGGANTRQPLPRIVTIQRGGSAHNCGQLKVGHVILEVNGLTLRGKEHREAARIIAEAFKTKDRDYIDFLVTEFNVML

DLG2_3, Q15700 = molecular target: DLG2_3, Q15700
DLG4_3, P78352 = molecular target: DLG4_3, P78352
Sequence of DLG4_3, P78352 (P78352 306-403): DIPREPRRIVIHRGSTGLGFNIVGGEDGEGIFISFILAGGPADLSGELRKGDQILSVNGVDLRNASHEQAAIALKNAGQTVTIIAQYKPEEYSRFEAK

FRMPD1, Q5SYB0 = molecular target: T6, FRMPD1, Q5SYB0
T6 sequence (Q5SYB0 52-145, limits assumed, looked up): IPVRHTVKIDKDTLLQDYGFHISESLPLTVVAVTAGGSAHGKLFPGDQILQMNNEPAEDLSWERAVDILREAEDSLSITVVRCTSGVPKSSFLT

FRMPD3, Q5JV73 = molecular target: FRMPD3, Q5JV73
Sequence of FRMPD3, Q5JV73 (Q5JV73 12-100): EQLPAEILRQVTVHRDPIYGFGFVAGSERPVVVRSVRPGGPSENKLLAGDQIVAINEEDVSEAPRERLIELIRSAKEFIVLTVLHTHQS

GORASP2, Q9H8Y8 = molecular target: GORASP2, Q9H8Y8
GRID2IP_2, A4D2P6 = molecular target: GRID2IP_2, A4D2P6
Sequence of GRID2IP_2, A4D2P6 (A4D2P6 272-370): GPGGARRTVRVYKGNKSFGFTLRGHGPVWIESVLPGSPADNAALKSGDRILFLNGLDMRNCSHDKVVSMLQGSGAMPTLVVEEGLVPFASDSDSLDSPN

GRIP2_3, Q9C0E4 = molecular target: GRIP2_3, Q9C0E4
Sequence of GRIP2_3, Q9C0E4 (Q9C0E4 238-339): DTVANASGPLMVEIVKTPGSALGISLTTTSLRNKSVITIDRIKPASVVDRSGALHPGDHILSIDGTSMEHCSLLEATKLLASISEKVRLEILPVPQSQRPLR

Inadl_1, Q8NI35 = molecular target: Inadl_1, Q8NI35
Sequence of Inadl_1, Q8NI35 (Q8NI35 113-229): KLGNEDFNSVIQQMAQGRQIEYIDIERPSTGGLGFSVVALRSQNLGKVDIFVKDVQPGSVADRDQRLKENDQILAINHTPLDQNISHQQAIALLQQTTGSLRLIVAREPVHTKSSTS

LAP2, Q96RT1 = molecular target: LAP2, Q96RT1
Sequence of LAP2, Q96RT1 (Q96RT1 other isoform, or with tags, fused parts or gaps): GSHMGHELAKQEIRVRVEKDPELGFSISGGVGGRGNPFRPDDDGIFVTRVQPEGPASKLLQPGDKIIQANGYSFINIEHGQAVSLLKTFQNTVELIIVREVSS

LIN7C, Q9NUP9 = molecular target: T7, LIN7C, Q9NUP9
T7 sequence (Q9NUP9 88-185, limits assumed, looked up): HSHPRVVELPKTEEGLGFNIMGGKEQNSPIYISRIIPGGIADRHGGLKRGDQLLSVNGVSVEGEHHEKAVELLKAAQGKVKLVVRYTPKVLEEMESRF

MAGI2_5, Q86UL8 = molecular target: MAGI2_5, Q86UL8
Sequence of MAGI2_5, Q86UL8 (Q86UL8 915-1017): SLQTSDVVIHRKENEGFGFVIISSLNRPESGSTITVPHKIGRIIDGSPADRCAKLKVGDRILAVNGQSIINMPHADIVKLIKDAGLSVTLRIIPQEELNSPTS

MAGI3_2, Q5TCQ9 = molecular target: MAGI3_2, Q5TCQ9
Sequence of MAGI3_2, Q5TCQ9 (Q5TCQ9 398-503): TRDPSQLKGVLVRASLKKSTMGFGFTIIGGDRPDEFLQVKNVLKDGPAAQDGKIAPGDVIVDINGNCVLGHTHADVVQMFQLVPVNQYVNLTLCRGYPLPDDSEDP

MAST1, Q9Y2H9 = molecular target: MAST1, Q9Y2H9
Sequence of MAST1, Q9Y2H9 (Q9Y2H9 962-1065): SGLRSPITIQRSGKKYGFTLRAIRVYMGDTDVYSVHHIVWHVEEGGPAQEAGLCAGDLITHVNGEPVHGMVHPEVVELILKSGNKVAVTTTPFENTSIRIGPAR

NHERF2_2, Q15599 = molecular target: NHERF2_2, Q15599
Sequence of NHERF2_2, Q15599 (Q15599 142-238): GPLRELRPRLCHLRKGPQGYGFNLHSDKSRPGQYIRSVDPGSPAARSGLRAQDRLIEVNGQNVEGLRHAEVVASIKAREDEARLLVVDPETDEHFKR

NHERF4_4, Q86UT5 = molecular target: NHERF4_4, Q86UT5
Sequence of NHERF4_4, Q86UT5 (Q86UT5 464-550): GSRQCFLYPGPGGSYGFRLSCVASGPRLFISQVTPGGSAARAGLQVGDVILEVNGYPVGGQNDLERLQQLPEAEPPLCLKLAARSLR

NOS1, P29475 = molecular target: NOS1, P29475
Sequence of NOS1, P29475 (P29475 9-101): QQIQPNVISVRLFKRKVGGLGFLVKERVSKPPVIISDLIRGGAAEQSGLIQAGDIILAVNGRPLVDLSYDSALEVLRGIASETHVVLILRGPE

PDZD2_2, O15018 = molecular target: T8, PDZD2_2, O15018
T8 sequence (O15018 329-429, limits assumed, looked up): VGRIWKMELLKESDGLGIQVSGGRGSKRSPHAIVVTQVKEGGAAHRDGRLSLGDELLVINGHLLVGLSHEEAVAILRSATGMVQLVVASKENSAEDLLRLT

SCRIB_3, Q14160 = molecular target: SCRIB_3, Q14160
Sequence of SCRIB_3, Q14160 (Q14160 999-1103): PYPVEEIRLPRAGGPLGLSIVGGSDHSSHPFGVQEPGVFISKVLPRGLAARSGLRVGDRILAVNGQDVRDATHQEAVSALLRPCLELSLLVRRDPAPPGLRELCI

SNTG2, Q9NY99 = molecular target: T9, SNTG2, Q9NY99
T9 sequence (Q9NY99 68-166, limits assumed, looked up): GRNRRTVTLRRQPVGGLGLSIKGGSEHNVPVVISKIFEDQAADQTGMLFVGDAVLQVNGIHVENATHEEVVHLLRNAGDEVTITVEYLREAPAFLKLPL

SNX27, Q96L92 = molecular target: SNX27, Q96L92
TJP3_3, O95049 = molecular target: T10, TJP3_3, O95049
T10 sequence (O95049 375-456, limits assumed, looked up): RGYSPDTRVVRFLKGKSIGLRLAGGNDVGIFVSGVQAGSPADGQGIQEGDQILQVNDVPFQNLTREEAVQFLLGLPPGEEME

TX1BP3, O14907 = molecular target: T11, TX1BP3, O14907
T11 sequence (O14907 10-122, limits assumed, looked up): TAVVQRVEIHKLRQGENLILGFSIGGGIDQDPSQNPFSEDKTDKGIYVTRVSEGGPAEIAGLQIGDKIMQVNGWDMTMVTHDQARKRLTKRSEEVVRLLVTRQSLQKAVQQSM

[1] = plain residues with an end cap or a label only (N-terminal biotin on a linker: ado-ado)
[2] = plain residues with an end cap or a label only (N-terminal biotin on a linker: ttds)

With IGHEDLETAV [DGKI, O75912] the pKd (APBA1_1, Q02410; [1]) was “below the threshold”, the pKd (APBA1_2, Q02410; [1]) was 4.03 and the pKd (ARHGAP21, Q5T5U3; [1]) was “below the threshold”. For the same binder, the pKd (ARHGEF11, O15085; [1]) was 4.55, the pKd (DFNB31_3, Q9P202; [1]) was 3.92 and the pKd (DLG2_3, Q15700; [1]) was 3.96. For the same binder, the pKd (DLG4_3, P78352; [1]) was “below the threshold”, the pKd (FRMPD1, Q5SYB0; [1]) was “below the threshold” and the pKd (FRMPD3, Q5JV73; [1]) was “below the threshold”. For the same binder, the pKd (GORASP2, Q9H8Y8; [1]) was “below the threshold”, the pKd (GRID2IP_2, A4D2P6; [1]) was 3.79 and the pKd (GRIP2_3, Q9C0E4; [1]) was “below the threshold”. For the same binder, the pKd (Inadl_1, Q8NI35; [1]) was “below the threshold”, the pKd (LAP2, Q96RT1; [1]) was 4.56 and the pKd (LIN7C, Q9NUP9; [1]) was 4.57. For the same binder, the pKd (MAGI2_5, Q86UL8; [1]) was 4.82, the pKd (MAGI3_2, Q5TCQ9; [1]) was 4.56 and the pKd (MAST1, Q9Y2H9; [1]) was 4.89. The pKd (NHERF2_2, Q15599; [1]) was 4.12, the pKd (NHERF4_4, Q86UT5; [1]) was “below the threshold” and the pKd (NOS1, P29475; [1]) was 4.17. It also gave a pKd (PDZD2_2, O15018; [1]) of 5.25, a pKd (SCRIB_3, Q14160; [1]) of 4.91 and a pKd (SNTG2, Q9NY99; [1]) of 4.8. For the same binder, the pKd (SNX27, Q96L92; [1]) was 5.73, the pKd (TJP3_3, O95049; [1]) was “below the threshold” and the pKd (TX1BP3, O14907; [1]) was 4.3.

KQVVPFSSSV [GDA, Q9Y2T3] was tested, and the pKd (APBA1_1, Q02410; [2]) was “below the threshold”, the pKd (APBA1_2, Q02410; [2]) was “below the threshold” and the pKd (ARHGAP21, Q5T5U3; [2]) was “below the threshold”. The pKd (ARHGEF11, O15085; [2]) was 3.56, the pKd (DFNB31_3, Q9P202; [2]) was “below the threshold” and the pKd (DLG2_3, Q15700; [2]) was 3.63. For the same binder, the pKd (DLG4_3, P78352; [2]) was “below the threshold”, the pKd (FRMPD1, Q5SYB0; [2]) was “below the threshold” and the pKd (FRMPD3, Q5JV73; [2]) was “below the threshold”. For the same binder, the pKd (GORASP2, Q9H8Y8; [2]) was “below the threshold”, the pKd (GRID2IP_2, A4D2P6; [2]) was 3.6 and the pKd (GRIP2_3, Q9C0E4; [2]) was “below the threshold”. For the same binder, the pKd (Inadl_1, Q8NI35; [2]) was “below the threshold”, the pKd (LAP2, Q96RT1; [2]) was 3.88 and the pKd (LIN7C, Q9NUP9; [2]) was “below the threshold”. It also gave a pKd (MAGI2_5, Q86UL8; [2]) of 3.74, a pKd (MAGI3_2, Q5TCQ9; [2]) of 3.81 and a pKd (MAST1, Q9Y2H9; [2]) of 4.04. For the same binder, the pKd (NHERF2_2, Q15599; [2]) was “below the threshold”, the pKd (NHERF4_4, Q86UT5; [2]) was “below the threshold” and the pKd (NOS1, P29475; [2]) was “below the threshold”. The pKd (PDZD2_2, O15018; [2]) was 4.93, the pKd (SCRIB_3, Q14160; [2]) was 3.93 and the pKd (SNTG2, Q9NY99; [2]) was “below the threshold”. The pKd (SNX27, Q96L92; [2]) was 3.53, the pKd (TJP3_3, O95049; [2]) was “below the threshold” and the pKd (TX1BP3, O14907; [2]) was 4.31.
